Like-named read-outs stand apart in the source and are kept apart here. Square brackets hold non-standard residues; d marks the D form. Ends that are not written are not given here. pS = N[C@@H](COP(=O)(O)O)C(=O)O

The source of these data is patent US20030096741A1, “Enhanced mineral delivery” (priority 2000, published 2003).

For assay [1] the following is noted: 3P motif versus 2P motif; cited from earlier work.
Assay [2] concerns bone specific gravity (femurs and tibias). Nature of the assay: Bone specific gravity in growing rats fed a high sucrose diet. It is filed as in vivo, Sprague-Dawley rats. To be noted: high sucrose diet for 5 weeks, 6.25 or 3.125 mmol/kg of diet, both groups. An excerpt:
A high sucrose diet is associated with a decrease in bone specific gravity in growing rats (reflecting reduced calcium and phosphorous content). See J. Nutr. 128:1807-1810 (1998). This decrease in bone density is reversed or prevented by carbamoyl phosphate supplementation. Sprague-Dawley rats were fed a high sucrose diet for 5 weeks, supplemented with carbarnoyl phosphate at either 6.25 or 3.125 mmol/kg of diet. […] Thus, carbamoyl phosphate modifies the effect of a high sucrose diet on bone growth.

For assay [3] the following is noted: cited from earlier work.
[4] abbreviates: calcium binding, human β-CN variants by number of phosphorylated Ser residues, calculated from published binding studies, read-out: Average dissociation Constant.

On to “3P variant: Reynolds (WO 98/40406) 3P variant having the sequence motif SerP-SerP-SerP-Glu-Glu (SEQ ID NO: 1) ([pS][pS][pS]EE)”, for which the “calcium and phosphate binding strength relative to 2P synthetic homologues having the motif SerP-SerP-Glu-Glu” value in assay [1] was 2.5 times.

Consider `NC(=O)OP(=O)(O)O` [carbamoyl phosphate], for which, in assay [2], the “specific gravities of femurs and tibias versus control rats receiving standard lab chow” value was “not significantly different”; the “specific gravities of femurs and tibias versus rats on the same diet without carbamoyl phosphate” value is listed as “significantly higher”.

B1: 4P: Human β-CN variant with four SerP residues, all three Ser in the target sequence phosphorylated (protein, UniProt P05814 16-226, looked up)
Beta-casein: RETIESLSSSEESITEYKQKVEKVKHEDQQQGEDEHQDKIYPSFQPQPLIYPFVEPIPYGFLPQNILPLAQPAVVLPVPQPEIMEVPKAKDTVYTKGRVMPVLKSPTIPFFDPQIPKLTDLENLHLPLPLLQPLMQQVPQPIPQTLALPPQPLWSVPQPKVLPIPQQVVPYPQRAVPVQALLLNQELLLNPTHQIYPVTQPLAPVHNPISV
modifications: four phosphoserines
On to B1, for which, in assay [3] (setting [4]), the Kd was 810 µM.

B2: 5P: Human β-CN variant with five phosphorylated Ser residues (protein, UniProt P05814 16-226, looked up)
Beta-casein: RETIESLSSSEESITEYKQKVEKVKHEDQQQGEDEHQDKIYPSFQPQPLIYPFVEPIPYGFLPQNILPLAQPAVVLPVPQPEIMEVPKAKDTVYTKGRVMPVLKSPTIPFFDPQIPKLTDLENLHLPLPLLQPLMQQVPQPIPQTLALPPQPLWSVPQPKVLPIPQQVVPYPQRAVPVQALLLNQELLLNPTHQIYPVTQPLAPVHNPISV
modifications: five phosphoserines
notes: Human β-CN variant with five phosphorylated Ser residues
Turning to B2, the Kd in assay [3] (setting [4]) was 420 µM.

B3: 1P: Human β-CN variant with one phosphorylated Ser residue (protein, UniProt P05814 16-226, looked up)
Beta-casein: RETIESLSSSEESITEYKQKVEKVKHEDQQQGEDEHQDKIYPSFQPQPLIYPFVEPIPYGFLPQNILPLAQPAVVLPVPQPEIMEVPKAKDTVYTKGRVMPVLKSPTIPFFDPQIPKLTDLENLHLPLPLLQPLMQQVPQPIPQTLALPPQPLWSVPQPKVLPIPQQVVPYPQRAVPVQALLLNQELLLNPTHQIYPVTQPLAPVHNPISV
modifications: one phosphoserine
notes: Human β-CN variant with one phosphorylated Ser residue
For the molecule B3, the Kd in assay [3] (setting [4]) was 1170 µM.

B4: 3P: Human β-CN variant with three phosphorylated Ser residues (protein, UniProt P05814 16-226, looked up)
Beta-casein: RETIESLSSSEESITEYKQKVEKVKHEDQQQGEDEHQDKIYPSFQPQPLIYPFVEPIPYGFLPQNILPLAQPAVVLPVPQPEIMEVPKAKDTVYTKGRVMPVLKSPTIPFFDPQIPKLTDLENLHLPLPLLQPLMQQVPQPIPQTLALPPQPLWSVPQPKVLPIPQQVVPYPQRAVPVQALLLNQELLLNPTHQIYPVTQPLAPVHNPISV
modifications: three phosphoserines
notes: Human β-CN variant with three phosphorylated Ser residues
Consider B4, for which the Kd in assay [3] (setting [4]) was 860 µM.

B5: 2P: Human β-CN variant with two SerP residues, only two of three Ser in the target sequence phosphorylated (protein, UniProt P05814 16-226, looked up)
Beta-casein: RETIESLSSSEESITEYKQKVEKVKHEDQQQGEDEHQDKIYPSFQPQPLIYPFVEPIPYGFLPQNILPLAQPAVVLPVPQPEIMEVPKAKDTVYTKGRVMPVLKSPTIPFFDPQIPKLTDLENLHLPLPLLQPLMQQVPQPIPQTLALPPQPLWSVPQPKVLPIPQQVVPYPQRAVPVQALLLNQELLLNPTHQIYPVTQPLAPVHNPISV
modifications: two phosphoserines
With B5, in assay [3] (setting [4]), the Kd is 1210 µM.

B6: bovine β-CN: Bovine beta-casein (protein, UniProt P02666 16-224, looked up)
Beta-casein: RELEELNVPGEIVESLSSSEESITRINKKIEKFQSEEQQQTEDELQDKIHPFAQTQSLVYPFPGPIPNSLPQNIPPLTQTPVVVPPFLQPEVMGVSKVKEAMAPKHKEMPFPKYPVEPFTESQSLTLTDVENLHLPLPLLQSWMHQPHQPLPPTVMFPPQSVLSLSQSKVLPVPQKAVPYPQRDMPIQAFLLYQEPVLGPVRGPFPIIV
Regarding B6, the Kd in assay [3] (bovine β-CN, read-out: calcium dissociation constant) is 650 µM.
